Laboratory results published in PMC2897846.

Target: CD40 on human B cells (human (endogenous in B cells from PBMC)) (UniProt P25942)
UniProt P25942, sequence (P25942 21-277): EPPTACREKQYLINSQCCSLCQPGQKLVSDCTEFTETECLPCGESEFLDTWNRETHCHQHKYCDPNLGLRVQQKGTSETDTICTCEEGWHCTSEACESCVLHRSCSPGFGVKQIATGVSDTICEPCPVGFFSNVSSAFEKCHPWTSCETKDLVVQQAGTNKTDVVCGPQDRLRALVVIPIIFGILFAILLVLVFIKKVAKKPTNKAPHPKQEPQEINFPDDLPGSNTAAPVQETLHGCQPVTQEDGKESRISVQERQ

For “CD40 ligand (CD40L, CD154) incorporated into HIV virions (from UniProt P29965 1-261)”, the intracellular AID protein (flow cytometry) in CD19+ B cells exposed to CD40L+ HIV NL4-3 for three days (% of CD19+ cells) was 2.11.
